B1: human IL-33 (112-270) complete Cys→Ser mutant (C208S, C227S, C232S and C259S) (ligand)
chain: SITGISPITEYLASLSTYNDQSITFALEDESYEIYVEDLKKDEKKDKVLLSYYESQHPSNESGDGVDGKMLMVTLSPTKDFWLHANNKEHSVELHKSEKPLPDQAFFVLHNMHSNSVSFESKTDPGVFIGVKDNHLALIKVDSSENLSTENILFKLSET

Target: human ST2.Fc (extracellular domain of ST2 fused to Fc) (human) (UniProt Q01638)
Chain of UniProt Q01638 (Q01638 19-328): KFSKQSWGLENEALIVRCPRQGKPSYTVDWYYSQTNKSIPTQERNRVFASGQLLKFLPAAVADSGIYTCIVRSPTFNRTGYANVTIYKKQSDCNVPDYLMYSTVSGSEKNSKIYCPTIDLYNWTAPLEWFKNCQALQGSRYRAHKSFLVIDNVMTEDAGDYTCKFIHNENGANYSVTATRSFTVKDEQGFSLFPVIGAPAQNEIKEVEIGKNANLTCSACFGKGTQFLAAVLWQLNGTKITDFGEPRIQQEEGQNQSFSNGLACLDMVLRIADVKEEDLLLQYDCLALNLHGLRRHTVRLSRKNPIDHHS

| EC50 in a short duration signalling assay (NFκB p65/RelA translocation in HUVEC) | Molecule |
| --- | --- |
| 0.15 nM | human IL-33 (amino acids 112-270), reduced form (from UniProt O95760 112-270) (ligand) |
| 0.15 nM | B1 |

Reference: PMC4579851
